This is an account of results in patent publication US20250042957A1 (Molecular Partners, published 2025).

Test [1] addresses T1, 2-in-1 DARPin 21 (SEQ ID NO: 90).
T1 chain: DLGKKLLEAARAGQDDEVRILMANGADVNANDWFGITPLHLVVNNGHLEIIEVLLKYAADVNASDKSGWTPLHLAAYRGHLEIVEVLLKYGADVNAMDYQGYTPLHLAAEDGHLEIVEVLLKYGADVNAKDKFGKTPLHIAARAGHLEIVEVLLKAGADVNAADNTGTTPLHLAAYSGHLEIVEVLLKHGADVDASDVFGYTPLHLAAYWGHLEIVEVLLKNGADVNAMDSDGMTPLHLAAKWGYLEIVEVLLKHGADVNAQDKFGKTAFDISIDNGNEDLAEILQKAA

Test [2] has as its target T2, 2-in-1 DARPin 22 (SEQ ID NO: 91).
T2 chain: T1 chain with K135R, A144N

Test [3] has as its target T3, VEGF165 (UniProt P15692-4 27-191, biotinylated in the ELISA of Example 4 (site not stated)).
T3 construct: also called biotinylated VEGF165; soluble VEGF
Description: SPR (ProteOn), VEGF165 immobilized, multi-trace.

Test [4] addresses T4, CD3-specific binding domain (SEQ ID NO: 3) (biotinylated when used as immobilized SPR ligand (site not stated)).
T4 construct: also called α-CD3 DARPin
T4 chain: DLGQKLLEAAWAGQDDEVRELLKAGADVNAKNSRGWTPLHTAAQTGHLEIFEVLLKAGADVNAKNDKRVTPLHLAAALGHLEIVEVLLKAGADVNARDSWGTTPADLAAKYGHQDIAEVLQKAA
Description: SPR (ProteOn), biotinylated CD3-specific binding domain immobilized, multi-trace 50-0.195 nM, 25 C.

Where a chain is given by its changes, count along the chain named.

B1: Aminoglycoside phosphotransferase (APH) (enzyme)
chain: MRGSHHHHHHGSAKMRISPELKKLIEKYRSVKDTEGMSPAKVYKLVGENENLYLKMTDSRYKGTTYDVEREKDMMLWLEGKLPVPKVLHFERHDGWSNLLMSEADGVLCSEEYEDEQSPEKIIELYAECIRLFHSIDISDCPYTNSLDSRLAELDYLLNNDLADVDSENWEEDTPFKDPRELYDFLKTEKPEEELVFSHGDLGDSNIFVKDGKVSGFIDLGRSGRADKWYDIAFCVRSIREDIGEEQYVELFFDLLGIKPDWEKIKYYILLDELF
As a reminder, the IC50 is the concentration that gives 50% inhibition. A lower IC50 goes with greater potency. As for B1, the IC50 came out at 55 nM in test [1] and 47 nM in test [2].

B2: α-CD3 DARPin-blocker (SEQ ID NO: 2) (designed binder)
chain: DLGKKLLQAARAGQLDEVRELLKAGADVNAKDAKGLTPLHLAAYHGHLEIVEVLLKAGADVNAKDVYGWTPLHIAAASGHLEIVEVLLKAGADVNAKDWLGWTPLHLAASHGHLEIVEVLLKAGADVNAQDKSGKTPADLAARAGHQDIAEVLQKAA
What is called Kd is the concentration at which binding is half-saturated. In general, koff refers to the first-order rate constant of dissociation. Low readings indicate slow dissociation, high ones fast dissociation. What is called kon is the rate constant with which the complex forms. Low values mean slower complex formation, high ones faster complex formation. For the molecule B2, in test [3], the binding result is on record as “no binding (tested: 50 nM (highest concentration run))”. Also, in test [4], the Kd worked out at 0.11 nM, the koff was 8.92e-05 s⁻¹ and the kon is 826000 M⁻¹ s⁻¹.
